Results: PMC5077174, “Analysis of the Physiological Activities of Scd6 through Its Interaction with Hmt1” (PLoS ONE, 2016)

Biological target: T1, GST-Scd6 (S. cerevisiae, UniProt P45978 1-349)
T1 construct: Scd6, S. cerevisiae; source: E. coli BL21 (DE3), purified (glutathione-sepharose beads)
T1 sequence (looked up): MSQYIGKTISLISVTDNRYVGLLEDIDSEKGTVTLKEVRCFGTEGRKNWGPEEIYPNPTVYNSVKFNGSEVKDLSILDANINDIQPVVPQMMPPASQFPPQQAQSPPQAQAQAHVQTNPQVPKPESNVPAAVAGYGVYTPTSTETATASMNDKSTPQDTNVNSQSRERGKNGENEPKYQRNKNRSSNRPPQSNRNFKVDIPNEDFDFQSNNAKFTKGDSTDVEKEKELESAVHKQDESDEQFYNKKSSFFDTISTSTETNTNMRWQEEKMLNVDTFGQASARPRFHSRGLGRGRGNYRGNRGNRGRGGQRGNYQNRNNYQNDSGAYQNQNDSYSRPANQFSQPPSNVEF
Test: pull-down; His6-Hmt1 incubated with GST or GST-Scd6 immobilized on glutathione-sepharose beads for 3 h at 4°C, 5 washes with PBS; Coomassie staining and anti-His immunoblot
Conditions: both partners purified

binding result: binds
B1: His6-Hmt1 (natural protein, S. cerevisiae, UniProt P38074 1-348, looked up)
chain: MSKTAVKDSATEKTKLSESEQHYFNSYDHYGIHEEMLQDTVRTLSYRNAIIQNKDLFKDKIVLDVGCGTGILSMFAAKHGAKHVIGVDMSSIIEMAKELVELNGFSDKITLLRGKLEDVHLPFPKVDIIISEWMGYFLLYESMMDTVLYARDHYLVEGGLIFPDKCSIHLAGLEDSQYKDEKLNYWQDVYGFDYSPFVPLVLHEPIVDTVERNNVNTTSDKLIEFDLNTVKISDLAFKSNFKLTAKRQDMINGIVTWFDIVFPAPKGKRPVEFSTGPHAPYTHWKQTIFYFPDDLDAETGDTIEGELVCSPNEKNNRDLNIKISYKFESNGIDGNSRSRKNEGSYLMH
notes: Hmt1, S. cerevisiae; source: E. coli BL21 (DE3), purified (Ni-NTA agarose, imidazole elution, dialyzed)
